Where no end group is shown, it is not given here.
What was measured:
[1] = target: T1, Anti-PSMA Fab (SEQ ID NOs: 19, 20); assay: phage binding ELISA; biotinylated anti-PSMA Fab on neutravidin plate, wells pre-incubated with PSMA antigen as competitor, anti-M13-HRP detection
T1 construct: Used biotinylated and captured on neutravidin coated plates; also called 006 PSMA Fab

[2] = target: T1, Anti-PSMA Fab (SEQ ID NOs: 19, 20); assay: phage binding ELISA; biotinylated anti-PSMA Fab on neutravidin plate, clonal phage supernatant, anti-M13-HRP detection
[3] = target: T2, Anti-PSMA Fab (SEQ ID NOs: 19, 20); assay: phage binding ELISA; biotinylated PSMA Fab on neutravidin plate, clonal phage supernatant, anti-M13 HRP detection;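 note: wells were preincubated with blocking buffer either containing PSMA antigen or without it before crude phage supernatant was added, briefly incubated, then washed prior to detection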
T2 construct: also called 006 PSMA Fab

[4] = target: T2, Anti-PSMA Fab (SEQ ID NOs: 19, 20); assay: phage binding ELISA; PSMA Fab coated wells pre-incubated with PSMA antigen as competitor, anti-M13 HRP detection
[5] = target: T3, Anti-PSMA Fab (SEQ ID NOs: 19, 20); assay: phage binding ELISA; clonal phage on biotinylated anti-PSMA Fab captured on neutravidin, anti-M13 HRP detection
T3 construct: In the phage ELISA the Fab was biotinylated and captured on neutravidin coated plates; also called 006 PSMA Fab

[6] = target: T3, Anti-PSMA Fab (SEQ ID NOs: 19, 20); assay: phage binding ELISA on captured anti-PSMA Fab; competitor: PSMA antigen

B1: Phage-1710 (peptide)
peptide: SIPCIPRDWLCPIK
modifications: cysteine pairing not given here; also: displayed as fusion to phage pIII, linker and order of fusion not given here
notes: not shown: pIII coat protein of the bacteriophage to which the peptide is fused
With B1 the “Anti-PSMA Fab signal in the presence of PSMA” value (“Anti-PSMA Fab signal” below) [1] was 0.096 and the “Anti-PSMA Fab (SEQ ID NOs: 19, 20) signal” value [2] was 1.89.

B2: Phage-1807 (peptide)
peptide: VVIKCKPEWMCSGF
notes: tested as clonal phage supernatant
With B2 the “Anti-PSMA Fab (SEQ ID NOs: 19, 20) signal” value [3] was 2.18 and the “Anti-PSMA Fab signal” value [4] was 0.0946.

B3: Phage-1818 (peptide)
peptide: MERWCVPDWMCATF
modifications: cysteine pairing not given here; also: displayed on phage as pIII fusion, pIII sequence and linker not given here
B3 was tested, and the “Anti-PSMA Fab (SEQ ID NOs: 19, 20) signal” value [5] was 2.47 and the “Anti-PSMA Fab signal” value [6] was 0.0578.

B4: Phage-1717 (peptide)
peptide: HCLGPALGPVDGDC
modifications: cysteine pairing not given here; also: displayed on phage as pIII fusion, pIII sequence, linker and fusion order not given here
notes: as for B1
For B4, the “Anti-PSMA Fab signal” value [1] was 0.076 and the “Anti-PSMA Fab (SEQ ID NOs: 19, 20) signal” value [2] was 2.33.

B5: Phage-1821 (peptide)
peptide: IVKRCEPMWMCAGF
modifications: cysteine pairing not given here; also: displayed on phage as pIII fusion, pIII sequence and linker not given here
In the case of B5, the “Anti-PSMA Fab (SEQ ID NOs: 19, 20) signal” value [5] is reported as 2.38 and the “Anti-PSMA Fab signal” value [6] is reported as 0.264.

B6: Phage-1719 (peptide)
peptide: DCFYAADIHWNYCN
modifications: cysteine pairing not given here; also: displayed on phage as pIII fusion, pIII sequence, linker and fusion order not given here
notes: as for B1
B6 was tested, and the “Anti-PSMA Fab signal” value [1] was 1.15 and the “Anti-PSMA Fab (SEQ ID NOs: 19, 20) signal” value [2] was 1.88.

B7: Phage-1823 (peptide)
peptide: TEIRCTPQWMCLGF
With B7 the “Anti-PSMA Fab (SEQ ID NOs: 19, 20) signal” value [5] was 2.37 and the “Anti-PSMA Fab signal” value [6] was 0.0871.

B8: Phage-1825 (peptide)
peptide: ISKLCTPPWMCEML
For B8, the “Anti-PSMA Fab (SEQ ID NOs: 19, 20) signal” value [5] was 2.33 and the “Anti-PSMA Fab signal” value [6] was 0.0582.

B9: Phage-1819 (peptide)
peptide: ALKLCIPFWMCEGL
B9 was tested, and the “Anti-PSMA Fab (SEQ ID NOs: 19, 20) signal” value [5] was 2.44 and the “Anti-PSMA Fab signal” value [6] was 0.129.

B10: Phage-1809 (peptide)
peptide: YERACIPNWICEGF
notes: as for B2
With B10 the “Anti-PSMA Fab (SEQ ID NOs: 19, 20) signal” value [3] was 1.03 and the “Anti-PSMA Fab signal” value [4] was 0.0842.

B11: Phage-1816 (peptide)
peptide: VLKYCIPDWMCAGI
notes: as for B2
B11 was tested, and the “Anti-PSMA Fab (SEQ ID NOs: 19, 20) signal” value [3] was 2.24 and the “Anti-PSMA Fab signal” value [4] was 0.0978.

B12: Phage-1711 (peptide)
peptide: MEYCSFHRFTCVLW
modifications: cysteine pairing not given here; also: displayed on phage as pIII fusion, pIII sequence, linker and fusion order not given here
notes: as for B1
B12 was tested, and the “Anti-PSMA Fab signal” value [1] was 0.117 and the “Anti-PSMA Fab (SEQ ID NOs: 19, 20) signal” value [2] was 1.88.

B13: Phage-1715 (peptide)
peptide: ILCGLYEALVSECG
modifications: cysteine pairing not given here; also: displayed on phage as pIII fusion, pIII sequence, linker and fusion order not given here
notes: as for B1
In the case of B13, the “Anti-PSMA Fab signal” value [1] is reported as 0.063 and the “Anti-PSMA Fab (SEQ ID NOs: 19, 20) signal” value [2] is reported as 2.49.

B14: Phage-1805 (peptide)
peptide: VEVKCFPLWFCVGL
notes: as for B2
In the case of B14, the “Anti-PSMA Fab (SEQ ID NOs: 19, 20) signal” value [3] is reported as 2.23 and the “Anti-PSMA Fab signal” value [4] is reported as 0.0923.

B15: Phage-1817 (peptide)
peptide: PERLCTPPWMCLGF
With B15 the “Anti-PSMA Fab (SEQ ID NOs: 19, 20) signal” value [5] was 2.24 and the “Anti-PSMA Fab signal” value [6] was 0.0917.

B16: Phage-1822 (peptide)
peptide: WENWCTPAWMCVGF
With B16 the “Anti-PSMA Fab (SEQ ID NOs: 19, 20) signal” value [5] was 2.37 and the “Anti-PSMA Fab signal” value [6] was 0.0932.

B17: Phage-1814 (peptide)
peptide: TEVRCTPPWMCLGF
notes: as for B2
With B17 the “Anti-PSMA Fab (SEQ ID NOs: 19, 20) signal” value [3] was 2.36 and the “Anti-PSMA Fab signal” value [4] was 0.0981.

B18: Phage-1722 (peptide)
peptide: TCLRFADLAIIHCD
modifications: cysteine pairing not given here; also: displayed on phage as pIII fusion, pIII sequence, linker and fusion order not given here
notes: also called Peptide-160; not shown: pIII coat protein of the bacteriophage to which the peptide is fused
B18 was tested, and the “Anti-PSMA Fab signal” value [1] was 0.0697 and the “Anti-PSMA Fab (SEQ ID NOs: 19, 20) signal” value [2] was 1.82.

B19: Phage-1714 (peptide)
peptide: FVCWTFGEHIKVCR
modifications: cysteine pairing not given here; also: displayed on phage as pIII fusion, pIII sequence, linker and fusion order not given here
notes: as for B1
B19 was tested, and the “Anti-PSMA Fab signal” value [1] was 0.205 and the “Anti-PSMA Fab (SEQ ID NOs: 19, 20) signal” value [2] was 2.51.

B20: Phage-1810 (peptide)
peptide: TTHVCIPSWMCSGF
notes: as for B2
In the case of B20, the “Anti-PSMA Fab (SEQ ID NOs: 19, 20) signal” value [3] is reported as 2.15 and the “Anti-PSMA Fab signal” value [4] is reported as 0.0668.

B21: Phage-1815 (peptide)
peptide: VERLCTPAWMCHGF
notes: as for B2
For B21, the “Anti-PSMA Fab (SEQ ID NOs: 19, 20) signal” value [3] was 2.36 and the “Anti-PSMA Fab signal” value [4] was 0.214.

B22: Phage-1813 (peptide)
peptide: TVAYCKPAWMCQGF
notes: as for B2
In the case of B22, the “Anti-PSMA Fab (SEQ ID NOs: 19, 20) signal” value [3] is reported as 2.37 and the “Anti-PSMA Fab signal” value [4] is reported as 0.108.

B23: Phage-1712 (peptide)
peptide: IRCVGEGHDLVCIF
modifications: cysteine pairing not given here; also: displayed on phage as pIII fusion, pIII sequence, linker and fusion order not given here
notes: as for B1
B23 was tested, and the “Anti-PSMA Fab signal” value [1] was 0.072 and the “Anti-PSMA Fab (SEQ ID NOs: 19, 20) signal” value [2] was 2.36.

B24: Phage-1811 (peptide)
peptide: VNHWCVPTWMCAGF
notes: as for B2
In the case of B24, the “Anti-PSMA Fab (SEQ ID NOs: 19, 20) signal” value [3] is reported as 2.41 and the “Anti-PSMA Fab signal” value [4] is reported as 0.186.

B25: Phage-1709 (peptide)
peptide: PELRCVPFWMCSFN
modifications: cysteine pairing not given here; also: fused to phage pIII (clonal phage display)
notes: as for B1
For B25, the “Anti-PSMA Fab signal” value [1] was 0.064 and the “Anti-PSMA Fab (SEQ ID NOs: 19, 20) signal” value [2] was 0.622.

B26: Phage-1718 (peptide)
peptide: SCGWLRGEEFGWWC
modifications: cysteine pairing not given here; also: displayed on phage as pIII fusion, pIII sequence, linker and fusion order not given here
notes: also called Peptide-190; not shown: pIII coat protein of the bacteriophage to which the peptide is fused
With B26 the “Anti-PSMA Fab signal” value [1] was 0.071 and the “Anti-PSMA Fab (SEQ ID NOs: 19, 20) signal” value [2] was 0.648.

B27: Phage-1806 (peptide)
peptide: ITPICKPAWICSGF
notes: as for B2
For B27, the “Anti-PSMA Fab (SEQ ID NOs: 19, 20) signal” value [3] was 2.2 and the “Anti-PSMA Fab signal” value [4] was 0.0631.

B28: Phage-1716 (peptide)
peptide: IECAYMTDQRFWCW
modifications: cysteine pairing not given here; also: fused to phage pIII (clonal phage display)
notes: as for B1
For B28, the “Anti-PSMA Fab signal” value [1] was 0.066 and the “Anti-PSMA Fab (SEQ ID NOs: 19, 20) signal” value [2] was 1.93.

B29: Phage-1803 (peptide)
peptide: LEPLCVPRWMCVGF
notes: as for B2
For B29, the “Anti-PSMA Fab (SEQ ID NOs: 19, 20) signal” value [3] was 2.36 and the “Anti-PSMA Fab signal” value [4] was 0.112.

B30: Phage-1820 (peptide)
peptide: MVKWCTPAWMCEML
B30 was tested, and the “Anti-PSMA Fab (SEQ ID NOs: 19, 20) signal” value [5] was 2.41 and the “Anti-PSMA Fab signal” value [6] was 0.113.

B31: Phage-1812 (peptide)
peptide: IVVKCVPSWMCEGF
notes: as for B2
For B31, the “Anti-PSMA Fab (SEQ ID NOs: 19, 20) signal” value [3] was 2.4 and the “Anti-PSMA Fab signal” value [4] was 0.102.

B32: Phage-1804 (peptide)
peptide: ITPVCKPLWMCSGL
notes: as for B2
With B32 the “Anti-PSMA Fab (SEQ ID NOs: 19, 20) signal” value [3] was 2.35 and the “Anti-PSMA Fab signal” value [4] was 0.0764.

B33: Phage-1824 (peptide)
peptide: VEKMCRPAWMCWVM
For B33, the “Anti-PSMA Fab (SEQ ID NOs: 19, 20) signal” value [5] was 2.37 and the “Anti-PSMA Fab signal” value [6] was 0.214.

B34: Phage-1808 (peptide)
peptide: PEHLCLPRWMCEGF
notes: as for B2
For B34, the “Anti-PSMA Fab (SEQ ID NOs: 19, 20) signal” value [3] was 1.78 and the “Anti-PSMA Fab signal” value [4] was 0.135.

B35: Phage-1721 (peptide)
peptide: SCFSFARLEVVPCD
modifications: cysteine pairing not given here; also: displayed on phage as pIII fusion, pIII sequence, linker and fusion order not given here
notes: as for B1
With B35 the “Anti-PSMA Fab signal” value [1] was 0.0555 and the “Anti-PSMA Fab (SEQ ID NOs: 19, 20) signal” value [2] was 1.26.

— patent publication US20260242478A1 (published 2026)
